Results: US20170253656A1

B1: 1337-A10 light chain paired with VH 1251-A06 (SEQ ID NO: 236) (Fab, V domains shown)
VH: QVQLVESGGGVVQPGRSLRLSCAASGFDFSSYGMHWVRQAPDKGLEWVAVIWDDGSDRYYADSVKGRFTISRDNSKNTLYLQMNSLRAEDTAVYYCARGGTRVLGAIHGTDVWGQGTTVTVSS
VL: DIQMTQSPSSLSASVGDRVTITCRASQGISSWVAWYQQKPEKAPKSLIYGSSRLQSGVPSRFSGSGSGTDFTLTISSLQPEDFATYYCQQYNTYPLTFGGGTKVEIK
B2: 1447-E08 scFv-Fc (Fc fusion, part only; not given: Fc portion, part only)
chain, part: EVQLLESGGGLVQPGGSLRLSCAASGFTFNDTDMSWVRQAPGKGLEWVGMINGAGGASFYADSVRGRFTISRDNSKNTLYLQMNSLRAEDTAVYYCAKFENQWEVTFDYWGQGTLVTVSSGGGGSGGGGSGGGGSEIVLTQSPGTLSLSPGERATLSCRASQRVAGIDLSWYQQKPGQAPRLLIYGASSRATGIPDRFSGSGSGTDFTLTISRLEPEDFAVYYCQQHNTTPPTFGQGTKVEIK
B3: 1447-G01 scFv-Fc (Fc fusion, part only; not given: Fc portion, part only)
chain, part: EVQLLESGGGLVQPGGSLRLSCAASGFTFNTSDMSWVRQAPGKGLEWVGIINGSGGATNYADSVKGRFTISRDNSKNTLYLQMNSLRAEDTAVYYCAKYENEMEVSMDYWGQGTLVTVSSGGGGSGGGGSGGGGSEIVLTQSPGTLSLSPGERATLSCRASQSVSSRELGWYQQKPGQAPRLLIYGASSRATGIPDRFSGSGSGTDFTLTISRLEPEDFAVYYCQQQCSWPPTFGQGTKVEIK
B4: 1193-H04b (scFv)
scFv: EVQLLESGGGLVQPGGSLRLSCAASGFTFTSSWMSWVRQAPGKGLEWVGIINGYNGITYYADSVKGRFTISRDNSKNTLYLQMNSLRAEDTAVYYCAKPSAPGARRFDYWGQGTLVTVSSGGGGSGGGGSGGGGSEIVLTQSPGTLSLSPGEATLSCRASQSVSSSYLAWYQQRPGQAPRLLIYGASSRATGIPDRFSGSGSGTDFTLTISRLEPEDFAVYYCQQHYTTPPTFGQGTKVEIK
B5: 1251-A02 heavy chain paired with VL SEQ ID NO: 272 (antibody, V domains shown)
VH: QVQLVESGGGVVQPGRSLRLSCAASGFAFSDHGMHWVRQAPDKGLEWVAVIWYDGSHKIYADSVKGRFTISRDNSKNTLYLQMNSLRAEDTAVYYCARGGSLAGGAVYGTDVWGQGTTVTVSS
VL: DIQMTQSPSSLSASVGDRVTITCRASQGISSWLAWYQQKPEKAPKSLIYAASSLQSGVPSRFSGSGSGTDFTLTISSLQPEDFATYYCQQYNSYPLTFGGGTKVEIK

Legend:
[1] = target: CD74 on CD74 positive SU-DHL-6 cells, P04233; assay: cell-based or functional assay
Sequence of CD74 on CD74 positive SU-DHL-6 cells, P04233 (P04233 whole entry): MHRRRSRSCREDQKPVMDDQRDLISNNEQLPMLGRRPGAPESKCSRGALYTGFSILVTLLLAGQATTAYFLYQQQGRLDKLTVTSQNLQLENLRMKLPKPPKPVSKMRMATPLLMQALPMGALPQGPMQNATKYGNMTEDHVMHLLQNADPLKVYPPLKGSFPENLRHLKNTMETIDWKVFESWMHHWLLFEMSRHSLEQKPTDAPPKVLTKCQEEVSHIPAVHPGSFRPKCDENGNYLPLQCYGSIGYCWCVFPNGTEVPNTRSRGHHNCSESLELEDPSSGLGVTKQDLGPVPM

[2] = target: CD74 on CD74 positive SU-DHL-6 cells (UniProt P04233); assay: cell-based or functional assay
Sequence of CD74 on CD74 positive SU-DHL-6 cells (P04233 whole entry): as above

| Binder | 2nd ADC Cell Killing IC50 [1] | 2nd ADC Cell Killing IC50 [2] |
| --- | --- | --- |
| B1 | 0.006 nM |  |
| B2 |  | 2.56 nM |
| B3 |  | 0.65 nM |
| B4 | 14.8 nM |  |
| B5 | 0.009 nM |  |
